Experiment [1] has as its target T1, SARS-CoV-2 Receptor Binding Domain (RBD) protein (SARS-CoV-2, UniProt P0DTC2 319-541).
T1 construct: also called Sars-Cov-2 (COV2)
In words: SPR (Carterra LSA).

The target in experiment [2] is T1, SARS-CoV-2 Receptor Binding Domain …. In words: SPR (Carterra LSA); scFv captured by anti-V5, RBD as analyte.

Bounds are passed on as bounds.

B1: COVID19_P13_H02 (scFv, V domains shown)
VH: QVQLVQSGAEVKKPGSSVKVSCKASGYTFTGFYMQWVRQAPGQGLEWMGGITPILGTANYAQKFQGRVTITADESTSTAYMELSSLRSEDTAVYYCAREIVMGGMDVWGQGTLVTVSS
VL: SSYVLTQPPSVSVAPGKTARITCGGNNIGSKSVHWYQQKPGQAPVLVIYYDSDRPSGIPERFSGSNSGNTATLTISRVEAGDEADYYCQSWDSSSDYVFGGGTKLTVLA
The Kd is the concentration at which binding is half-saturated. The low end stands for tighter binding, the high end for weaker binding. In general, koff refers to the first-order rate constant of dissociation. In general, kon refers to a measure of how fast the partners come together. A high value points to faster complex formation. For the molecule B1, in experiment [1], the Kd was less than 50 nM. For the same molecule, in experiment [2], the affinity, expressed as Kd, was 40.6 nM; the off-rate constant (koff) came out at 0.0084 s⁻¹; the kon stood at 210000 M⁻¹ s⁻¹.

B2: COVID19_P14_F05 (scFv, V domains shown)
VH: QVQLVQSGAEVKKPGSSVKVSCKASGNTFSMFAINWVRQAPGQGLEWVGVINPIGSTTTYAQKFQGRVTITADESTSTAYMELSSLRSEDTAVYYCARDTVMGGMDVWGQGTLVTVSS
VL: SSYVLTQPPSVSVAPGKTARITCGGNNIGSKSVHWYQQKPGQAPVLVIYYDSDRPSGIPERFSGSNSGNTATLTISRVEAGDEADYYCQVWVSSSDYVFGGGTKLTVLA
The molecule B2 gave a dissociation constant (Kd) in experiment [1] of less than 50 nM. Moreover, in experiment [2], the Kd is 21.7 nM, the koff came out at 0.00152 s⁻¹ and the association rate constant (kon) is 69900 M⁻¹ s⁻¹.

B3: COVID19_P13_B05 (scFv, V domains shown)
VH: QVQLVQSGAEVKKPGSSVKVSCKASGYTFTSYDINWVRQAPGQGLEWMGWINPNSGGTNYAQKFQGRVTITADESTSTAYMELSSLRSEDTAVYYCARDTFFGGMDVWGQGTLVTVSS
VL: SSYVLTQPPSVSVAPGKTARITCGGNNIGSKSVHWYQQKPGQAPVLVIYYDSDRPSGIPERFSGSNSGNTATLTISRVEAGDEADYYCQVWDSSSYYVFGGGTKLTVLA
As to B3, in experiment [1], the equilibrium dissociation constant (Kd) was less than 50 nM. In experiment [2], the Kd came out at 21.9 nM, the koff worked out at 0.0037 s⁻¹ and the kon came out at 170000 M⁻¹ s⁻¹.

B4: COVID19_P01_H10 (scFv, V domains shown)
VH: QVQLVQSGAEVKKPGSSVKVSCKASGGTFGNYPITWVRQAPGQGLEWMGIIYPGDSDARYRPSFQGRVTITADESTSTAYMELSSLRSEDTAVYYCARDFSMGGMDVWGQGTLVTVSS
VL: SSYVLTQPPSVSVAPGKTARITCGGNNIGSKSVHWYQQKPGQAPVLVIYYDSDRPSGIPERFSGSNSGNTATLTISRVEAGDEADYYCQVWDDSSDYVFGGGTKLTVLA
notes: also called COVID19_PO1_H10
In experiment [1], B4 showed a Kd of less than 50 nM. Further, in experiment [2], the dissociation constant (Kd) came out at 39.3 nM, the koff came out at 0.0148 s⁻¹ and the kon was 377000 M⁻¹ s⁻¹.

B5: COVID19_P14_B07 (scFv, V domains shown)
VH: QVQLVQSGAEVKKPGSSVKVSCKASGYTFTSYGISWVRQAPGQGLEWMGWINPNSGGTNYAQKFQGRVTITADESTSTAYMELSSLRSEDTAVYYCAVETVMGGFTVWGQGTLVTVSS
VL: SSYVLTQPPSVSVAPGKTARITCGGNNIGSKSVHWYQQKPGQAPVLVIYYDSDRPSGIPERFSGSNSGNTATLTISRVEAGDEADYYCQVWDSSSDYVFGGGTKLTVLA
In experiment [1], B5 came in with an equilibrium dissociation constant (Kd) of less than 50 nM. In experiment [2], this molecule came in with an equilibrium dissociation constant (Kd) of 34.2 nM, a koff of 0.0131 s⁻¹ and an on-rate constant (kon) of 383000 M⁻¹ s⁻¹.

B6: COVID19_P02_A11 (scFv, V domains shown)
VH: QVQLVQSGAEVKKPGSSVKVSCKASGSTFSMFAINWVRQAPGQGLEWVGVINPRGSSTTYAQKFQGRVTITADESTSTAYMELSSLRSEDTAVYYCARDTVMGGMDVWGQGTLVTVSS
VL: SSYVLTQPPSVSVAPGKTARITCGGNNIGSKSVHWYQQKPGQAPVLVIYYDSDRPSGIPERFSGSNSGNTATLTISRVEAGDEADYYCQVWDRSSDYVFGGGTKLTVLA
With B6, the dissociation constant (Kd) in experiment [1] is less than 50 nM. Also, in experiment [2], binding was characterised by a dissociation constant (Kd) of 45.1 nM, the off-rate constant (koff) is 0.0147 s⁻¹ and the kon is 326000 M⁻¹ s⁻¹.

B7: COVID19_P02_A04 (scFv, V domains shown)
VH: QVQLVQSGAEVKKPGSSVKVSCKASGYAFTSYYMHWVRQAPGQGLEWMGVIDPSEGSTSNARKFQGRVTITADESTSTAYMELSSLRSEDTAVYYCVSDTVMGGMDVWGQGTLVTVSS
VL: SSYVLTQPPSVSVAPGKTARITCGGNNIGSKSVHWYQQKPGQAPVLVVYDDSDRPSGIPERFSGSNSGNTATLTISRVEAGDEADYYCQVWDSSSLYVFGGGTKLTVLA
In the case of B7, in experiment [1], the Kd is less than 50 nM. Besides, in experiment [2], the Kd was 41.4 nM, the koff was 0.0187 s⁻¹ and the on-rate (kon) was 451000 M⁻¹ s⁻¹.

B8: COVID19_P14_B05 (scFv, V domains shown)
VH: QVQLVQSGAEVKKPGSSVKVSCKASGGTFSSYTISWVRQAPGQGLEWMGIINPSGGSTSYAQKFQGRVTITADESTSTAYMELSSLRSEDTAVYYCARDTVMGGMGVWGQGTLVTVSS
VL: SSYVLTQPPSVSVAPGKTARITCGGNNIGSKSVHWYQQKPGQAPVLVIYYDSDRPSGIPERFSGSNSGNTATLTISRVEAGDEADYYCQVWDSSSFYVFGGGTKLTVLA
In experiment [1], B8 registered a dissociation constant (Kd) of less than 50 nM. For the same molecule, in experiment [2], the Kd came to 48 nM, the koff worked out at 0.0141 s⁻¹ and the kon came to 294000 M⁻¹ s⁻¹.

B9: COVID19_P01_E11 (scFv, V domains shown)
VH: QVQLVQSGAEVKKPGSSVKVSCKASGGTFSNYTITWVRQAPGQGLEWLGWISAYNGNTDYAQKLQGRVTITADESTSTAYMELSSLRSEDTAVYYCARDALMGGMDVWGQGTLVTVSS
VL: SSYVLTQPPSVSVAPGKTARITCGGNNIGSKSVHWYQQKPGQAPVLVIYYDSDRPSGIPERFSGSNSGNTATLTISRVEAGDEADYYCQVWDSRSDYVFGGGTKLTVLA
In turn, B9 displayed a Kd in experiment [1] of less than 50 nM. In experiment [2], this molecule gave a dissociation constant (Kd) of 5.87 nM, an off-rate constant (koff) of 0.000586 s⁻¹ and a kon of 99900 M⁻¹ s⁻¹.

B10: COVID19_P01_B08 (scFv, V domains shown)
VH: QVQLVQSGAEVKKPGSSVKVSCKASGGTFSNFAITWVRQAPGQGLEWMGVINPGGGSTTYAQTFQGRVTITADESTSTAYMELSSLRSEDTAVYYCARDTVMGGMDVWGQGTLVTVSS
VL: SSYVLTQPPSVSVAPGKTARITCGGNNIGSKSVHWYQQKPGQAPVLVIYYDSDRPSGIPERFSGSNSGNTATLTISRVEAGDEADYYCQVWDSSSDYVFGGGTKLTVLA
In experiment [1], B10 yielded an equilibrium dissociation constant (Kd) of less than 50 nM. For the same molecule, in experiment [2], binding was characterised by a dissociation constant (Kd) of 33.8 nM, the koff amounted to 0.0149 s⁻¹ and the kon amounted to 442000 M⁻¹ s⁻¹.

B11: COVID19_P14_C01 (scFv, V domains shown)
VH: QVQLVQSGAEVKKPGSSVKVSCKASGYTFSDFYLHWVRQAPGQGLEWMGGITPIFGTANYAQKFQGRVTITADESTSTAYMELSSLRSEDTAVYYCAMETVMGGMDVWGQGTLVTVSS
VL: SSYVLTQPPSVSVAPGKTARITCGGNNIGSKSVHWYQQKPGQAPVLVIYYDSDRPSGIPERFSGSNSGNTATLTISRVEAGDEADYYCQVWDSSSDYVFGGGTKLTVLA
In experiment [1], B11 registered a Kd of less than 50 nM. In experiment [2], this molecule came in with a Kd of 12.1 nM, a koff of 0.00191 s⁻¹ and a kon of 158000 M⁻¹ s⁻¹.

B12: COVID19_P14_F08 (scFv, V domains shown)
VH: QVQLVQSGAEVKKPGSSVKVSCKASGYTFTAFYIHWVRQAPGQGLEWMGGIIPISGTANYAQKFQGRATITADESTSTAYMELSSLRSEDTAVYYCAREVVMGGMDVWGQGTLVTVSS
VL: SSYVLTQPPSVSVAPGKTARITCGGNNIGSKSVHWYQQKPGQAPVLVIYYDSDRPSGIPERFSGSNSGNTATLTISRVEAGDEADYYCQVWDSTSDYVFGGGTKLTVLA
As for B12, the dissociation constant (Kd) in experiment [1] is less than 50 nM. In experiment [2], this molecule yielded a dissociation constant Kd of 25 nM, an off-rate (koff) of 0.00283 s⁻¹ and a kon of 113000 M⁻¹ s⁻¹.

B13: COVID19_P14_E01 (scFv, V domains shown)
VH: QVQLVQSGAEVKKPGSSVKVSCKASGYTFTSYYMHWVRQAPGQGLEWMGGITPIFGTANYAQKFQGRVTITADESTSTAYMELSSLRSEDTAVYYCAVETVMGGMQMWGQGTLVTVSS
VL: SSYVLTQPPSVSVAPGKTARITCGGNNIGSKSVHWYQQKPGQAPVLVIYYDSDRPSGIPERFSGSNSGNTATLTISRVEAGDEADYYCQVWDSSSDYVFGGGTKLTVLA
Take B13: in experiment [1], the dissociation constant (Kd) was less than 50 nM. In experiment [2], this molecule yielded a Kd of 10.7 nM, a koff of 0.000819 s⁻¹ and an on-rate (kon) of 76800 M⁻¹ s⁻¹.

B14: COVID19_P14_D07 (scFv, V domains shown)
VH: QVQLVQSGAEVKKPGSSVKVSCKASGYTFSSFYIHWVRQAPGQGLEWMGGIIPIFGEAEYAHKFQGRVTITADESTSTAYMELSSLRSEDTAVYYCAMETVMGGMDVWGQGTLVTVSS
VL: SSYVLTQPPSVSVAPGKTARITCGGNNIGSKSVHWYQQKPGQAPVLVIYYDSDRPSGIPERFSGSNSGNTATLTISRVEAGDEADYYCQVWDSSSDYVFGGGTKLTVLA
Consider B14, for which the Kd in experiment [1] is less than 50 nM. In experiment [2], this molecule yielded a Kd of 6.08 nM, a koff of 0.00232 s⁻¹ and an association rate constant (kon) of 381000 M⁻¹ s⁻¹.

B15: COVID19_P14_E07 (scFv, V domains shown)
VH: QVQLVQSGAEVKKPGSSVKVSCKASGYTFINYDINWVRQAPGQGLEWMGGITPIFGTANYAQKFQGRVTITADESTSTAYMELSSLRSEDTAVYYCARDTVMGGMDVWGQGTLVTVSS
VL: SSYVLTQPPSVSVAPGKTARITCGGNNIGSKSVHWYQQKPGQAPVLVIYYDSDRPSGIPERFSGSNSGNTATLTISRVEAGDEADYYCQVWDSHSDYVFGGGTKLTVLA
In turn, B15 came in with a dissociation constant (Kd) in experiment [1] of less than 50 nM. In experiment [2], this molecule yielded a dissociation constant Kd of 5.67 nM, a koff of 0.000778 s⁻¹ and a kon of 137000 M⁻¹ s⁻¹.

B16: COVID19_P14_B08 (scFv, V domains shown)
VH: QVQLVQSGAEVKKPGSSVKVSCKASGYTFTSYYVHWVRQAPGQGLEWMGGILPILGTPHYAQKFQGRVTITADESTSTAYMELSSLRSEDTAVYYCALETVMGGMTAWGQGTLVTVSS
VL: SSYVLTQPPSVSVAPGKTARITCGGNNIGSKSVHWYQQKPGQAPVLVIYYDSDRPSGIPERFSGSNSGNTATLTISRVEAGDEADYYCQVWDSSSDYVFGGGTKLTVLA
In the case of B16, in experiment [1], the Kd is less than 50 nM. Further, in experiment [2], the dissociation constant (Kd) is 30.8 nM, the dissociation rate constant (koff) worked out at 0.0115 s⁻¹ and the kon amounted to 374000 M⁻¹ s⁻¹.

B17: COVID19_P14_G01 (scFv, V domains shown)
VH: QVQLVQSGAEVKKPGSSVKVSCKASGYNFINYYLHWVRQAPGQGLEWMGGITPIFGIANYAQKFQGRVTITADESTSTAYMELSSLRSEDTAVYYCARETVMGGMDVWGQGTLVTVSS
VL: SSYVLTQPPSVSVAPGKTARITCGGNKIGSKSVHWYQQKPGQAPVLVIYYDSDRPSGIPERFSGSNSGNTATLTISRVEAGDEADYYCQVWDSGSDYVFGGGTKLTVLA
On to B17, for which the dissociation constant (Kd) in experiment [1] was less than 50 nM. In experiment [2], this molecule returned a dissociation constant Kd of 8.45 nM, a dissociation rate constant (koff) of 0.000842 s⁻¹ and an on-rate (kon) of 99700 M⁻¹ s⁻¹.

Values taken from patent US20230272051A1 (CENTIVAX, published 2023).
